Assay [1] addresses T1, Human thromboxane synthase (TBXAS1) (human, UniProt P24557 1-533).
T1 construct: thromboxane synthase (TBXAS1, CYP5A1), human, recombinant; Covalently immobilised on CNBr-Sepharose 4B (fishing) or on a CM5 chip (SPR); also used as analyte; also called CYP5A1
T1 sequence (looked up): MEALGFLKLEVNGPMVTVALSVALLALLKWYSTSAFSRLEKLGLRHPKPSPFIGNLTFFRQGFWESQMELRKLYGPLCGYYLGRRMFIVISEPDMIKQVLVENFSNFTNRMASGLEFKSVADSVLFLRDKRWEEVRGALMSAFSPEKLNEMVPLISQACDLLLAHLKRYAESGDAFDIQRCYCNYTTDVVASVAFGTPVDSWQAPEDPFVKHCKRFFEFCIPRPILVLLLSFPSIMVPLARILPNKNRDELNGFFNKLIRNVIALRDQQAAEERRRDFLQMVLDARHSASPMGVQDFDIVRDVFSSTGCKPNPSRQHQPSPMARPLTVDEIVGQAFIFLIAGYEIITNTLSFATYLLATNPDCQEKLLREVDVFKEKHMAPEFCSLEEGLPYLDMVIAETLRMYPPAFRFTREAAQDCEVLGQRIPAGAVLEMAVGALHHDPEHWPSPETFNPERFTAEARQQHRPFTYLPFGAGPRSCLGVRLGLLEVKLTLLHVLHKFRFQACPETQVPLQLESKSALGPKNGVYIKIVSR
Nature of the assay: SPR; Biacore 3000; TBXAS1 amine-coupled to a CM5 chip (about 7,500 RU); analytes 50 nM to 5 μM injected for 10 min at 5 μL/min; control channel without protein. As to conditions: both partners purified.

Assay [2] addresses T1, Human thromboxane synthase (TBXAS1). Briefly: SPR; as a2, with isatin added to the analyte samples at a final concentration of 100 μM and incubated for 15 min. As to conditions: both partners purified.

B1: aldosterone synthase (CYP11B2) (enzyme, UniProt P19099 25-503, looked up)
chain: GTRAARAPRTVLPFEAMPQHPGNRWLRLLQIWREQGYEHLHLEMHQTFQELGPIFRYNLGGPRMVCVMLPEDVEKLQQVDSLHPCRMILEPWVAYRQHRGHKCGVFLLNGPEWRFNRLRLNPDVLSPKAVQRFLPMVDAVARDFSQALKKKVLQNARGSLTLDVQPSIFHYTIEASNLALFGERLGLVGHSPSSASLNFLHALEVMFKSTVQLMFMPRSLSRWISPKVWKEHFEAWDCIFQYGDNCIQKIYQELAFNRPQHYTGIVAELLLKAELSLEAIKANSMELTAGSVDTTAFPLLMTLFELARNPDVQQILRQESLAAAASISEHPQKATTELPLLRAALKETLRLYPVGLFLERVVSSDLVLQNYHIPAGTLVQVFLYSLGRNAALFPRPERYNPQRWLDIRGSGRNFHHVPFGFGMRQCLGRRLAEAEMLLLLHHVLKHFLVETLTQEDIKMVYSFILRPGTSPLLTFRAIN
notes: aldosterone synthase (CYP11B2), mitochondrial cytochrome P450, recombinant
Turning to B1, in assay [1], the Kd amounted to 690 nM.

B2: 4-nitrophenol-2-hydroxylase (CYP2E1), recombinant (enzyme, UniProt P05181 1-493, looked up)
chain: MSALGVTVALLVWAAFLLLVSMWRQVHSSWNLPPGPFPLPIIGNLFQLELKNIPKSFTRLAQRFGPVFTLYVGSQRMVVMHGYKAVKEALLDYKDEFSGRGDLPAFHAHRDRGIIFNNGPTWKDIRRFSLTTLRNYGMGKQGNESRIQREAHFLLEALRKTQGQPFDPTFLIGCAPCNVIADILFRKHFDYNDEKFLRLMYLFNENFHLLSTPWLQLYNNFPSFLHYLPGSHRKVIKNVAEVKEYVSERVKEHHQSLDPNCPRDLTDCLLVEMEKEKHSAERLYTMDGITVTVADLFFAGTETTSTTLRYGLLILMKYPEIEEKLHEEIDRVIGPSRIPAIKDRQEMPYMDAVVHEIQRFITLVPSNLPHEATRDTIFRGYLIPKGTVVVPTLDSVLYDNQEFPDPEKFKPEHFLNENGKFKYSDYFKPFSTGKRVCAGEGLARMELFLLLCAILQHFNLKPLVDPKDIDLSPIHIGFGCIPPRYKLCVIPRS
notes: cytochrome P450 2E1, recombinant; also called cytochrome P450 2E1
As to B2, in assay [1], the affinity, expressed as Kd, was 430 nM; the “fold difference of koff against TBXAS1•CYP11B2 (CYP2E1 the slower)” value was found to be 15 fold; the “fold difference of kon against TBXAS1•CYP11B2 (CYP2E1 the slower)” value was determined as 10 fold. In assay [2], the “fold decrease in koff with 100 μM isatin against no isatin” value turned out to be 2.5 fold, the “fold increase in affinity with 100 μM isatin against no isatin” value was 5 fold and the “fold increase in kon with 100 μM isatin against no isatin” value is 2 fold.

The values above are taken from paper PMC5762833, “Direct Molecular Fishing of New Protein Partners for Human Thromboxane Synthase” (Acta Naturae, 2017).
